Measured values: PMC5473807, “Distribution and kinetics of the Kv1.3-blocking peptide HsTX1[R14A] in experimental rats” (Scientific Reports, 2017)
Where two headings read alike, the source gives them in different places.

Experiment: In vivo biodistribution by organ and tissue extraction
Parameters: species or system male Wistar rats
Conditions: for SUV at 5 min / tissue uptake dose at 5 min / SUV at 1 h / tissue uptake dose at 1 h / SUV at 4 h / tissue uptake dose at 4 h / SUV at 24 h / tissue uptake dose at 24 h / SUV at 48 h / tissue uptake dose at 48 h: male, Wistar, total radioactivity, rat, mean ± SD; for SUV at 5 min / tissue uptake dose at 5 min: 5 min p.i.; for SUV at 1 h / tissue uptake dose at 1 h: 60 min p.i.; for SUV at 4 h / tissue uptake dose at 4 h: 240 min p.i.; for SUV at 24 h / tissue uptake dose at 24 h: 1440 min p.i.; for SUV at 48 h / tissue uptake dose at 48 h: 2880 min p.i.
Procedure: The present study includes data obtained from a total of 50 animals. Four animals (body weight 227 ± 10 g) for each time point were injected intravenously into a tail vein or subcutaneously with approximately 0.3 MBq ([…]) [^64Cu]Cu-NOTA-HsTX1[R14A] conjugate in 0.5 mL electrolyte solution E-153 (Serumwerk Bernburg, Germany). Animals were euthanised at 5, 60, 240, 1440 and 2880 min post-injection. Blood and the major organs were collected, weighed, and counted in a cross-calibrated γ-counter (Isomed 1000, Isomed GmbH, Dresden) and Wallac WIZARD Automatic Gamma Counter (PerkinElmer, Germany). The radioactivity of the tissue samples was decay-corrected and calibrated by comparing the counts in tissue with the counts in aliquots of the injected radiotracer that had been measured in the γ-counter at the same time. The activity in the selected organs was expressed as percent-injected dose per organ (% ID) and the activity concentration in tissues and organs as standardised uptake value (SUV). Values are quoted as mean ± standard error of mean (SEM) for each group of four animals.

[1] = Harderian gland, iv, 0.3 MBq, i.v., n=4, read-out: Harderian gl. SUV
[2] = Harderian gland, iv, 0.3 MBq, i.v., n=4, read-out: Harderian gl. activity amount
[3] = Harderian gland, iv, 0.3 MBq, i.v., n=8, read-out: Harderian gl. SUV
[4] = Harderian gland, iv, 0.3 MBq, i.v., n=8, read-out: Harderian gl. activity amount
[5] = Harderian gland, sc, 0.3 MBq, s.c., n=4, read-out: Harderian gl. SUV
[6] = Harderian gland, sc, 0.3 MBq, s.c., n=4, read-out: Harderian gl. activity amount
[7] = adrenals, iv, 0.3 MBq, i.v., n=4, read-out: Adrenals SUV
[8] = adrenals, iv, 0.3 MBq, i.v., n=4, read-out: Adrenals activity amount
[9] = adrenals, iv, 0.3 MBq, i.v., n=8, read-out: Adrenals SUV
[10] = adrenals, iv, 0.3 MBq, i.v., n=8, read-out: Adrenals activity amount
[11] = adrenals, sc, 0.3 MBq, s.c., n=4, read-out: Adrenals SUV
[12] = adrenals, sc, 0.3 MBq, s.c., n=4, read-out: Adrenals activity amount
[13] = blood, sc, s.c., n=4, read-out: Blood SUV
[14] = brain, iv, 0.3 MBq, i.v., n=4, read-out: Brain SUV
[15] = brain, iv, 0.3 MBq, i.v., n=4, read-out: Brain activity amount
[16] = brain, iv, 0.3 MBq, i.v., n=8, read-out: Brain SUV
[17] = brain, iv, 0.3 MBq, i.v., n=8, read-out: Brain activity amount
[18] = brain, sc, 0.3 MBq, s.c., n=4, read-out: Brain SUV
[19] = brain, sc, 0.3 MBq, s.c., n=4, read-out: Brain activity amount
[20] = carcass, iv, 0.3 MBq, i.v., n=4, read-out: Carcass activity amount
[21] = carcass, iv, 0.3 MBq, i.v., n=8, read-out: Carcass activity amount
[22] = carcass, sc, 0.3 MBq, s.c., n=4, read-out: Carcass activity amount
[23] = femur, iv, 0.3 MBq, i.v., n=4, read-out: Femur SUV
[24] = femur, iv, 0.3 MBq, i.v., n=4, read-out: Femur activity amount
[25] = femur, iv, 0.3 MBq, i.v., n=8, read-out: Femur SUV
[26] = femur, iv, 0.3 MBq, i.v., n=8, read-out: Femur activity amount

## CSCC[C@@H]1NC(=O)[C@@H]2CSSC[C@H](NC(=O)[C@H](CO)NC(=O)[C@H](C)NC(=O)COCCOCCNC(=O)CN3CCN(CC(=O)O)CCN(CC(=O)O)CC3)C(=O)N[C@@H](CCCNC(=N)N)C(=O)N[C@@H]([C@@H](C)O)C(=O)N3CCC[C@H]3C(=O)N[C@@H](CCCCN)C(=O)N[C@@H](CC(=O)O)C(=O)N[C@H]3CSSC[C@H](NC(=O)[C@H](CCCCN)NC(=O)[C@H](CCCNC(=N)N)NC(=O)[C@H](CC(N)=O)NC1=O)C(=O)N[C@@H](CCCCN)C(=O)N[C@H]1CSSC[C@H](NC(=O)[C@@H]4CCCN4C(=O)[C@H](CC(=O)O)NC(=O)[C@H](C)NC3=O)C(=O)N[C@@H](C)C(=O)N[C@@H](CCCCN)C(=O)N[C@@H](CCC(=O)O)C(=O)N[C@@H]([C@@H](C)O)C(=O)NCC(=O)N[C@@H](CSSC[C@@H](C(N)=O)NC(=O)[C@H](CCCNC(=N)N)NC(=O)[C@H](CC(N)=O)NC1=O)C(=O)N1CCC[C@H]1C(=O)N[C@@H](Cc1ccc(O)cc1)C(=O)NCC(=O)N[C@@H](CCCCN)C(=O)N2 [[^64Cu]Cu-NOTA-HsTX1[R14A], metal not drawn]
i.v.
  biological half-life of the total activity in the rat body: 45.4 h
[1]
  SUV at 5 min: 0.82 ± 0.12 SUV
  SUV at 4 h: 0.23 ± 0.01 SUV
  SUV at 48 h: 0.48 ± 0.05 SUV
[2]
  tissue uptake dose at 5 min: 0.1 ± 0.02 %ID
  tissue uptake dose at 4 h: 0.03 %ID
  tissue uptake dose at 48 h: 0.07 %ID
[3]
  SUV at 1 h: 0.3 ± 0.05 SUV
  SUV at 24 h: 0.56 ± 0.1 SUV
[4]
  tissue uptake dose at 1 h: 0.04 %ID
  tissue uptake dose at 24 h: 0.08 ± 0.01 %ID
[5]
  SUV at 1 h: 0.32 ± 0.01 SUV
  SUV at 4 h: 0.21 ± 0.01 SUV
  SUV at 24 h: 0.46 ± 0.01 SUV
  SUV at 48 h: 0.44 ± 0.02 SUV
[6]
  tissue uptake dose at 1 h: 0.04 %ID
  tissue uptake dose at 4 h: 0.03 %ID
  tissue uptake dose at 24 h: 0.08 ± 0.01 %ID
  tissue uptake dose at 48 h: 0.06 ± 0.01 %ID
[7]
  SUV at 5 min: 1.26 ± 0.48 SUV
  SUV at 4 h: 0.39 ± 0.05 SUV
  SUV at 48 h: 0.71 ± 0.04 SUV
[8]
  tissue uptake dose at 5 min: 0.03 %ID
  tissue uptake dose at 4 h: 0.01 %ID
  tissue uptake dose at 48 h: 0.02 %ID
[9]
  SUV at 1 h: 0.65 ± 0.37 SUV
  SUV at 24 h: 0.86 ± 0.11 SUV
[10]
  tissue uptake dose at 1 h: 0.01 %ID
  tissue uptake dose at 24 h: 0.02 %ID
[11]
  SUV at 1 h: 0.4 ± 0.08 SUV
  SUV at 4 h: 0.4 ± 0.02 SUV
  SUV at 24 h: 0.73 ± 0.1 SUV
  SUV at 48 h: 0.55 ± 0.33 SUV
[12]
  tissue uptake dose at 1 h: 0.01 %ID
  tissue uptake dose at 4 h: 0.01 %ID
  tissue uptake dose at 24 h: 0.02 %ID
  tissue uptake dose at 48 h: 0.02 ± 0.01 %ID
blood, iv, 0.3 MBq, i.v., n=4, read-out: Blood SUV
  SUV at 5 min: 1.09 ± 0.62 SUV
blood, iv, 0.3 MBq, i.v., n=8, read-out: Blood SUV
  SUV at 1 h: 0.7 ± 0.23 SUV
[13]
  SUV at 4 h: 0.47 ± 0.21 SUV
  SUV at 24 h: 0.44 ± 0.04 SUV
  SUV at 48 h: 0.3 ± 0.01 SUV
[14]
  SUV at 5 min: 0.07 SUV
  SUV at 4 h: 0.03 SUV
  SUV at 48 h: 0.07 SUV
[15]
  tissue uptake dose at 5 min: 0.05 %ID
  tissue uptake dose at 4 h: 0.05 ± 0.01 %ID
  tissue uptake dose at 48 h: 0.1 %ID
[16]
  SUV at 1 h: 0.05 ± 0.01 SUV
  SUV at 24 h: 0.08 ± 0.01 SUV
[17]
  tissue uptake dose at 1 h: 0.05 ± 0.03 %ID
  tissue uptake dose at 24 h: 0.08 ± 0.03 %ID
[18]
  SUV at 1 h: 0.04 SUV
  SUV at 4 h: 0.03 SUV
  SUV at 24 h: 0.06 SUV
  SUV at 48 h: 0.07 SUV
[19]
  tissue uptake dose at 1 h: 0.06 ± 0.01 %ID
  tissue uptake dose at 4 h: 0.05 %ID
  tissue uptake dose at 24 h: 0.1 %ID
  tissue uptake dose at 48 h: 0.09 %ID
[20]
  tissue uptake dose at 5 min: 63.4 ± 6.19 %ID
  tissue uptake dose at 4 h: 20.1 ± 1.68 %ID
  tissue uptake dose at 48 h: 21.6 ± 1.04 %ID
[21]
  tissue uptake dose at 1 h: 28.1 ± 1.55 %ID
  tissue uptake dose at 24 h: 28.4 ± 3.49 %ID
[22]
  tissue uptake dose at 1 h: 32.9 ± 2.62 %ID
  tissue uptake dose at 4 h: 20.1 ± 1.28 %ID
  tissue uptake dose at 24 h: 28.5 ± 1.49 %ID
  tissue uptake dose at 48 h: 19.7 ± 2.74 %ID
[23]
  SUV at 5 min: 3.04 ± 2.13 SUV
  SUV at 4 h: 0.87 ± 0.04 SUV
[24]
  tissue uptake dose at 5 min: 1.32 ± 0.89 %ID
  tissue uptake dose at 4 h: 0.55 ± 0.03 %ID
[25]
  SUV at 1 h: 1.58 ± 0.58 SUV
  SUV at 24 h: 0.54 ± 0.06 SUV
[26]
  tissue uptake dose at 1 h: 0.8 ± 0.21 %ID
  tissue uptake dose at 24 h: 0.3 ± 0.06 %ID
